The values that follow come from paper PMC4496297.

Assay [1] has as its target FimC-FimH (Escherichia coli) (UniProt P31697). As to the kind of experiment: SPR. Conditions: cited from earlier work.
Assay [2] deals with FimC_(Q19C)-FimH chaperone-adhesin complex, FimC labeled with coumarin maleimide (CPM) (Escherichia coli) (UniProt P31697). As to the kind of experiment: other fluorescence titration.
The target of assay [3] is FimCFimH, where FimC was labeled with the thiol-reactive probe coumarin maleimide (CPM) at Q19C, T51. The assay can be described thus: other fluorescence titration.

As usually defined, the Kd is a measure of binding affinity in units of concentration. Regarding FimD (from UniProt P30130), the equilibrium dissociation constant (Kd) in assay [1] was 9.1 nM. As for “FimD_(ΔC1ΔC2) (purified, His-tag removed) (from UniProt P30130 46-878) (domain or fragment)”, the Kd in assay [2] stood at 389 nM. On the same count and under the same terms, to “FimD_(ΔNΔplug) (purified, His-tag removed) (from UniProt P30130 46-878) (domain or fragment)” belongs 40.8 nM. Still for that read-out and setting: to “FimDΔC2 (purified, His-tag removed) (from UniProt P30130 46-878) (domain or fragment)” belongs 213 nM. “FimDΔN (purified, His-tag removed) (from UniProt P30130 46-878) (domain or fragment)” displayed a Kd in assay [2] above 1200 nM. In assay [3], “WT FimD usher (purified, His-tag removed) (from UniProt P30130 46-878) (natural protein)” displayed an equilibrium dissociation constant (Kd) of 9.5 nM.
